Assay results: PMC5130018 (2016)

B1: WH-biotin (peptide WH with GGGK-biotin at the carboxyl terminal) [modified: biotin on the C-terminal lysine (GGGK-biotin); biotin on the C-terminal lysine (GGGK-biotin)] / mouse Clec9a expressed on HEK-293T cells (pIRES2-EGFP-mClec9a) … (parent complex)
chain 1: WPRFHSSVFHTHGGGK
chain 2: MHAEEIYTSLQWDIPTSEASQKCQSPSKCSGAWCVVTMISCVVCMGLLATSIFLGIKFFQVSSLVLEQQERLIQQDTALVNLTQWQRKYTLEYCQALLQRSLHSGTDASTGPVLLTSPQMVPQTLDSKETGSDCSPCPHNWIQNGKSCYYVFERWEMWNISKKSCLKEGASLFQIDSKEEMEFISSIGKLKGGNKYWVGVFQDGISGSWFWEDGSSPLSDLLPAERQRSAGQICGYLKDSTLISDKCDSWKYFICEKKAFGSCI

Variants of: B1
Experiment: flow cytometry on cells; parent: 49.6

Variant	response
chain 2 MHAEEIYTSLQWDIPTSEASQKCQSPSKCSGAWCVVTMISCVVCMGLLATSIFLGIKFFQVSSLVLEQQERLIQQDTALVNLTQWQRKYTLEYCQALLQRSLHSGTDASTGPVLLTSPQMVPQTLDSKETGSDCSPCPHNWIQNGKSCYYVFEAWEMWNISKKSCLKEGASLFQIDSKEEMEFISSIGKLKGGNKYWVGVFQDGISGSWFWEDGSSPLSDLLPAERQRSAGQICGYLKDSTLISDKCDSWKYFICEKKAFGSCI [chain 2 R154A]	69.6 % of cells in upper-right quadrant (SA+ EGFP+)
chain 2 MHAEEIYTSLQWDIPTSEASQKCQSPSKCSGAWCVVTMISCVVCMGLLATSIFLGIKFFQVSSLVLEQQERLIQQDTALVNLTQWQRKYTLEYCQALLQRSLHSGTDASTGPVLLTSPQMVPQTLDSKETGSDCSPCPHNWIQNGKSCYYVFERWEMWNISKKSCLKEGASLFQIDSKEEMEFISSIGKLKGGNKYWVGVFQDGISGSWFWEDGSSPLSDLLPAERQRSAGQICGYLKDSTLISDKCDSAKYFICEKKAFGSCI [chain 2 W250A]	7.85 % of cells in upper-right quadrant (SA+ EGFP+)
chain 2 MHAEEIYTSLQWDIPTSEASQKCQSPSKCSGAWCVVTMISCVVCMGLLATSIFLGIKFFQVSSLVLEQQERLIQQDTALVNLTQWQRKYTLEYCQALLQRSLHSGTDASTGPVLLTSPQMVPQTLDSKETGSDCSPCPHNWIQNGKSCYYVFERWEAWNISKKSCLKEGASLFQIDSKEEMEFISSIGKLKGGNKYWVGVFQDGISGSWFWEDGSSPLSDLLPAERQRSAGQICGYLKDSTLISDKCDSWKYFICEKKAFGSCI [chain 2 M157A]	74.2 % of cells in upper-right quadrant (SA+ EGFP+)
chain 2 MHAEEIYTSLQWDIPTSEASQKCQSPSKCSGAWCVVTMISCVVCMGLLATSIFLGIKFFQVSSLVLEQQERLIQQDTALVNLTQWQRKYTLEYCQALLQRSLHSGTDASTGPVLLTSPQMVPQTLDSKETGSDCSPCPHNWIQNGKSCYYVFERAEMWNISKKSCLKEGASLFQIDSKEEMEFISSIGKLKGGNKYWVGVFQDGISGSWFWEDGSSPLSDLLPAERQRSAGQICGYLKDSTLISDKCDSWKYFICEKKAFGSCI [chain 2 W155A]	52.5 % of cells in upper-right quadrant (SA+ EGFP+)

The remaining lines, values ahead:

response	Variant
45.4 % of cells in upper-right quadrant (SA+ EGFP+)	chain 2 MHAEEIYTSLQWDIPTSEASQKCQSPSKCSGAWCVVTMISCVVCMGLLATSIFLGIKFFQVSSLVLEQQERLIQQDTALVNLTQWQRKYTLEYCQALLQRSLHSGTDASTGPVLLTSPQMVPQTLDSKETGSDCSPCPHNWIQNGKSCYYVFERWEMWNISKKSCLKEGASLFQIDSKEEMEFISSIGKLKGGNKYWVGVFQDGISGSWFWEDGSSPLSDLLPAERQRSAGQICGYLKDSTLISDKCDSWKAFICEKKAFGSCI [chain 2 Y252A]
11.3 % of cells in upper-right quadrant (SA+ EGFP+)	chain 2 MHAEEIYTSLQWDIPTSEASQKCQSPSKCSGAWCVVTMISCVVCMGLLATSIFLGIKFFQVSSLVLEQQERLIQQDTALVNLTQWQRKYTLEYCQALLQRSLHSGTDASTGPVLLTSPQMVPQTLDSKETGSDCSPCPHNWIQNGKSCYYVFERWEMWNISKKSCLKEGASLFQIDSKEEMEFISSIGKLKGGNKYWVGVFQDGISGSWFWEDGSSPLSDLLPAERQRSAGQICGYLKDSTLISDKCASWKYFICEKKAFGSCI [chain 2 D248A]
50.6 % of cells in upper-right quadrant (SA+ EGFP+)	chain 2 MHAEEIYTSLQWDIPTSEASQKCQSPSKCSGAWCVVTMISCVVCMGLLATSIFLGIKFFQVSSLVLEQQERLIQQDTALVNLTQWQRKYTLEYCQALLQRSLHSGTDASTGPVLLTSPQMVPQTLDSKETGSDCSPCPHNWIQNGKSCYYVFERWEMWNASKKSCLKEGASLFQIDSKEEMEFISSIGKLKGGNKYWVGVFQDGISGSWFWEDGSSPLSDLLPAERQRSAGQICGYLKDSTLISDKCDSWKYFICEKKAFGSCI [chain 2 I160A]
